Assay results as given in PMC4059526 (2014).

B1: U2A' (protein)
chain: MVKLTPELINQSMQYINPCRERELDLRGYKIPQIENLGATLDQFDTIDLSDNDLRKLDNLPHLPRLKCLLLNNNRILRISEGLEEAVPNLGSIILTGNNLQELSDLEPLVGFTKLETICLLINPVSTKPNYREYMAYKFPQLRLLDFRKIKQKDRQAAQEFFRTKQGKDVLKEISRKSKMSAAAAIAAEAGNGKGRGSEGGRLANPQDMQRIREAIKRASSLAEVERLSQILQSGQLPDKFQHEMEAVAQNGAGHNGSGAVAMEY
modifications: SLIV RNA bound

Tests used:
SNF = target: T1, SNF (Drosophila melanogaster, UniProt P43332)
T1 chain: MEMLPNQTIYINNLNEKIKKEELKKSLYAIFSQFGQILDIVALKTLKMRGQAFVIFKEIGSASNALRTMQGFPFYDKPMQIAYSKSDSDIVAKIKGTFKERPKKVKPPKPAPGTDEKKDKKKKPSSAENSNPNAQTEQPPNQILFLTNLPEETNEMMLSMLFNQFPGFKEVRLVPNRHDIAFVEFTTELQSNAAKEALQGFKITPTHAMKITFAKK

SNF (sans fille) = target: T2, SNF (sans fille) (Drosophila, UniProt P43332 1-216); test: 2-aminopurine fluorescence and CD
T2 sequence: T1 chain

Binder | Kd (SNF) [nM] | binding result (SNF (sans fille))
B1 | 4 | –
GGCCGUAUUGCAGUACCGCGGCC (structured_RNA, 2-aminopurine replaces A at position 15 (3'-loop adenine)) [2AP-SLIV] | – | binds
